Test results published in patent US20170081386A1 (APOGENIX, published 2017).

T1: TRAIL-Receptor 1-Fc (R&D Systems) (UniProt O00220 24-239, limits assumed)
T1 construct: Bought reagent; also called Fc-fusion protein of TRAIL-Receptor 1; not shown: Fc part of the bought fusion
T1 sequence (looked up): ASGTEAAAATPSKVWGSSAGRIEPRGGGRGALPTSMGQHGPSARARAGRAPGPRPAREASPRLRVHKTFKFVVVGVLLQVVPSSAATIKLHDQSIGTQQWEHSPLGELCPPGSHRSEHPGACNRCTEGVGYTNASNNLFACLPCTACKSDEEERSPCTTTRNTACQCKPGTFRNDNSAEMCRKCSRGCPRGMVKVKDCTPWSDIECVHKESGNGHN

B1: LIGHT-ASPD (ligand)
chain: EVNPAAHLTGANSSLTGSGGPLLWETQLGLAFLRGLSYHDGALVVTKAGYYYIYSKVQLGGVGCPLGLASTITHGLYKRTPRYPEELELLVSQQSPCGRATSSSRVWWDSSFLGGVVHLEAGEEVVVRVLDERLVRLRDGTRSYFGAFMVGSSGSSGSSGSGLPDVASLRQQVEALQGQVQHLQAAFSQYKKVELFPNGQSVGEKIFKTAGFVKPFTEAQLLCTQAGGQLASPRSAAENAALQQLVVAKNEAAFLSMTDSKTEGKFTYPTGESLVYSNWAPGEPNDDGGSEDCVEIFTNGKWNDRACGEKRLVVCEFGGSPSSSSSSAWSHPQFEK
notes: also called Sp-LIGHT-ASPD; LIGHT fusion protein
B2: TRAILR2mut-ASPD (ligand)
chain: QRVAAHITGTRGRSNTLSSPNSKNEKALGRKINSWESSRSGHSFLSNLHLRNGELVIHEKGFYYIYSQTQFKFREEIKENTKNDKQMVQYIYKYTSYPDPILLMKSARNSCWSKDAEYGLYSIYQGGIFELKENDRIFVSVTNERLLQMDHEASFFGAFLVGSSGSSGSSGSGLPDVASLRQQVEALQGQVQHLQAAFSQYKKVELFPNGQSVGEKIFKTAGFVKPFTEAQLLCTQAGGQLASPRSAAENAALQQLVVAKNEAAFLSMTDSKTEGKFTYPTGESLVYSNWAPGEPNDDGGSEDCVEIFTNGKWNDRACGEKRLVVCEFGGSPSSSSSSAWSHPQFEK
notes: TRAIL-Receptor 2 selective mutein; homotrimer by SEC; also called Sp-TRAILR2mut-ASPD
B3: TRAILR2mut-A-CCSPD (ligand)
chain: QRVAAHITGTRGRSNTLSSPNSKNEKALGRKINSWESSRSGHSFLSNLHLRNGELVIHEKGFYYIYSQTQFKFREEIKENTKNDKQMVQYIYKYTSYPDPILLMKSARNSCWSKDAEYGLYSIYQGGIFELKENDRIFVSVTNERLLQMDHEASFFGAFLVGSSGSSGSSGSGLPDVASLRQQVEALQGQVQHLQAAFSQYKKVELFPNGPSSSSSSAWSHPQFEK
notes: it is assembled from the construct description; also called TRAILR2mut (member of the SPD variants)
B4: TRAILR2mut-D-SPD (ligand)
chain: QRVAAHITGTRGRSNTLSSPNSKNEKALGRKINSWESSRSGHSFLSNLHLRNGELVIHEKGFYYIYSQTQFKFREEIKENTKNDKQMVQYIYKYTSYPDPILLMKSARNSCWSKDAEYGLYSIYQGGIFELKENDRIFVSVTNERLLQMDHEASFFGAFLVGSGLPDVASLRQQVEALQGQVQHLQAAFSQYKKVELFPNGQSVGEKIFKTAGFVKPFTEAQLLCTQAGGQLASPRSAAENAALQQLVVAKNEAAFLSMTDSKTEGKFTYPTGESLVYSNWAPGEPNDDGGSEDCVEIFTNGKWNDRACGEKRLVVCEFGGSPSSSSSSAWSHPQFEK
notes: as for B3
B5: TRAILR2mut-D-CCSPD (ligand)
chain: QRVAAHITGTRGRSNTLSSPNSKNEKALGRKINSWESSRSGHSFLSNLHLRNGELVIHEKGFYYIYSQTQFKFREEIKENTKNDKQMVQYIYKYTSYPDPILLMKSARNSCWSKDAEYGLYSIYQGGIFELKENDRIFVSVTNERLLQMDHEASFFGAFLVGSGLPDVASLRQQVEALQGQVQHLQAAFSQYKKVELFPNGPSSSSSSAWSHPQFEK
notes: as for B3

Legend:
[1] = biological target: T1, TRAIL-Receptor 1-Fc (R&D Systems); test: Streptactin-ELISA, purified trimeric ligand immobilized via Strep-tag II, receptor-Fc detection
Procedure: (§1) To determine the binding of receptors to constructed ligands, streptactin-coated 96-well microplates were used. Therefore, supernatants from transiently transfected HEK293 cells, mouse sera or purified proteins were immobilized on streptactin-plates (IBA GmbH) for 1-3 hours in PBS. Samples were diluted in ELISA binding/blocking buffer (PBS, 0.1% Tween-20, 20% SuperBlock T20-PBS (Pierce)). Plates were washed with PBS+0.1% Tween-20 and incubated with mouse-anti-TRAIL antibody (Pharmingen, clone RIK-2), TRAIL-Receptor 1-Fc (R&D Systems), TRAIL-Receptor 2-Fc (R&D Systems), TACl-Fc (R&D Systems) or HVEM-Fc (R&D Systems) for one hour at room temperature. Plates were again washed and Fc-proteins were detected with anti-human- or anti-mouse-Fc-specific peroxidase-conjugated antibodies (Sigma). Colour reaction was done by addition of 100 μl per well of TMB substrate (Kem-En-Tec Diagnostics) and the absorbance at 450 nm and 630 nm was determined with an ELISA reader after addition of 25 μl of 25% H₂SO₄ as stop-solution. Values were calculated as 450 nm-630 nm with MS Excel.
Varying concentrations (0-10 microgram/ml) of affinity and SEC purified, trimeric LIGHT-ASPD were used for immobilized via the Strep-tag II on Streptactin-coated microplates. LIGHT-ASPD was then detected in a ELISA set-up using 100 ng/ml of Fc-fusion proteins of the receptors HVEM and TRAIL-Receptor 1, respectively. […]

[2] = biological target: T1, TRAIL-Receptor 1-Fc (R&D Systems); test: Streptactin-ELISA (FIG. 14A), supernatant immobilized, constant concentration of TRAIL-Receptor 1-Fc
Procedure: as §1
The selectivity of TRAIL-Receptor 1 or TRAIL-Receptor 2 towards fusion proteins of SPD/ccSPD and TRAIL, TRAILR1mut and TRAILR2mut was shown by Streptactin-ELISA. Therefore, TRAIL-SPD-fusion proteins in supernatants from transiently transfected HEK293 cells were immobilized on Streptactin coated microplates. Cell supernatant from untransfected cells served as negative control. Specifically bound proteins were detected with constant (A, B) or varying (C, D) concentrations of either TRAIL-Receptor 1-Fc or TRAIL-Receptor 2-Fc. As shown in (A), the ligand TRAILR1mut fused to SPD variants is deteced by TRAIL-Receptor 1, whereas the ligand TRAILR2mut is not. As shown in (B), the ligand TRAILR2mut is preferentially detected by TRAIL-Receptor 2, whereas TRAILR1mut-and TRAIL wild-type constructs are equally well detected. As shown in C, TRAIL-Receptor 1-Fc bound to TRAIL-R1 mut-ASPD and TRAIL-ASPD equally well over the whole receptor titration range, whereas TRAIL-R2mut-ASPD is not detected. As shown in D, TRAIL-Receptor 2-Fc bound to TRAIL-R2mut-ASPD and TRAIL-ASPD equally well over the receptor titration range analyzed, whereas the signal for TRAIL-R1mut-ASPD decreased rapidely with decreasing concentrations of receptor.

Binder	binding result [1]	binding result [2]
B1	no binding	–
B2	–	no binding
B3	–	no binding
B4	–	no binding
B5	–	no binding
